Test results published in FireProtDB (doi:10.1111/j.1432-1033.1995.tb20713.x).

B1: Adenylate kinase, P07170 (parent)
chain: MSSSESIRMVLIGPPGAGKGTQAPNLQERFHAAHLATGDMLRSQIAKGTQLGLEAKKIMDQGGLVSDDIMVNMIKDELTNNPACKNGFILDGFPRTIPQAEKLDQMLKEQGTPLEKAIELKVDDELLVARITGRLIHPASGRSYHKIFNPPKEDMKDDVTGEALVQRSDDNADALKKRLAAYHAQTEPIVDFYKKTGIWAGVDASQPPATVWADILNKLGKD

Variants of: B1
Settings: Saccharomyces cerevisiae (strain ATCC 204508 / S288c), Thermal, Fluorescence, reversible: yes, structure 2AKY, whole UniProt chain shown; for ddG of mutation (higher = less stable) / unfolding free energy: 25 °C

Variant: N171D
- ddG of mutation (higher = less stable) (pH 7.5, MOPS-NaOH 30 mM): 2.15 kcal/mol
- unfolding free energy (pH 7.5, MOPS-NaOH 30 mM): 1.67 kcal/mol
- Tm (pH 7.5, MOPS-NaOH 30 mM): 47.1 °C
- change of melting temperature, mutant - wild type (higher = more stable) (pH 7.5, MOPS-NaOH 30 mM): -0.6 °C
- unfolding enthalpy (van 't Hoff) (pH 7.5, MOPS-NaOH 30 mM): 47.8 kcal/mol

Variant: T112H
- unfolding free energy (pH 4.5, Acetic acid-NaOH 30 mM): 0.72 kcal/mol
- Tm (pH 4.5, Acetic acid-NaOH 30 mM): 40.2 °C
- unfolding enthalpy (van 't Hoff) (pH 4.5, Acetic acid-NaOH 30 mM): 31.1 kcal/mol
- unfolding free energy (pH 7.6, MOPS-NaOH 30 mM): 1.2 kcal/mol
- Tm (pH 7.6, MOPS-NaOH 30 mM): 42.9 °C
- unfolding enthalpy (van 't Hoff) (pH 7.6, MOPS-NaOH 30 mM): 41.8 kcal/mol

Variant: V10I
- ddG of mutation (higher = less stable) (pH 7.5, MOPS-NaOH 30 mM): 1.2 kcal/mol
- unfolding free energy (pH 7.5, MOPS-NaOH 30 mM): 2.63 kcal/mol
- Tm (pH 7.5, MOPS-NaOH 30 mM): 46.2 °C
- change of melting temperature, mutant - wild type (higher = more stable) (pH 7.5, MOPS-NaOH 30 mM): -1.5 °C
- unfolding enthalpy (van 't Hoff) (pH 7.5, MOPS-NaOH 30 mM): 64.5 kcal/mol

Variant: I215F
- ddG of mutation (higher = less stable) (pH 7.5, MOPS-NaOH 30 mM): 1.91 kcal/mol
- unfolding free energy (pH 7.5, MOPS-NaOH 30 mM): 1.91 kcal/mol
- Tm (pH 7.5, MOPS-NaOH 30 mM): 40 °C
- change of melting temperature, mutant - wild type (higher = more stable) (pH 7.5, MOPS-NaOH 30 mM): -7.7 °C
- unfolding enthalpy (van 't Hoff) (pH 7.5, MOPS-NaOH 30 mM): 59.8 kcal/mol

Variant: T79H
- unfolding free energy (pH 5, Acetic acid-NaOH 30 mM): 2.87 kcal/mol
- Tm (pH 5, Acetic acid-NaOH 30 mM): 46.8 °C
- unfolding enthalpy (van 't Hoff) (pH 5, Acetic acid-NaOH 30 mM): 68.1 kcal/mol
- ddG of mutation (higher = less stable) (pH 7.5, MOPS-NaOH 30 mM): 2.15 kcal/mol
- unfolding free energy (pH 7.5, MOPS-NaOH 30 mM): 1.67 kcal/mol
- Tm (pH 7.5, MOPS-NaOH 30 mM): 46.6 °C
- change of melting temperature, mutant - wild type (higher = more stable) (pH 7.5, MOPS-NaOH 30 mM): -1.1 °C
- unfolding enthalpy (van 't Hoff) (pH 7.5, MOPS-NaOH 30 mM): 50.2 kcal/mol
